Results published in article doi:10.1101/575795.

What follows are substances tested against CCR5-SNAP labeled with Alexa-488 (CCR5-SNAP-488) (human) (UniProt P51681) (assay: fluorescence cross-correlation spectroscopy).
UniProt P51681, sequence (P51681 whole entry): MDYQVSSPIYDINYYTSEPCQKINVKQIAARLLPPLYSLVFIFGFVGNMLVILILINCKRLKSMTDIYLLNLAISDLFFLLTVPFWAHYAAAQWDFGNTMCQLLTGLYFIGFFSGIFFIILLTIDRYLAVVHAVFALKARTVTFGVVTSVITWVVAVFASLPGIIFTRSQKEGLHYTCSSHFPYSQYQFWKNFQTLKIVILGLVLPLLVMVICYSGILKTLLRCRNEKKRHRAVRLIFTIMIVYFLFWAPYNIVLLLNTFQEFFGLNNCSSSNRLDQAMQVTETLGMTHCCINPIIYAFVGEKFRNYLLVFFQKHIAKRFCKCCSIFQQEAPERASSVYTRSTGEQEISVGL

Row | Substance | Ki | Kd
1 | 5P12-RANTES, non-labeled (from UniProt P13501 24-91) (ligand) | 0.14 nM | 
2 | Alexa-647-labeled PSC-RANTES (PSC-647) (from UniProt P13501 24-91) (ligand) |  | 6.6 nM
3 | 6P4-RANTES, non-labeled (from UniProt P13501 24-91) (ligand) | 3.5 nM | 
4 | Alexa-647-labeled 6P4-RANTES (6P4-647) (from UniProt P13501 24-91) (ligand) |  | 10.4 nM
5 | Alexa-647-labeled 5P12-RANTES (5P12-647) (from UniProt P13501 24-91) (ligand) |  | 0.37 nM
6 | Alexa-647-labeled 5P14-RANTES (5P14-647) (from UniProt P13501 24-91) (ligand) |  | 0.48 nM
